Laboratory results as given in US20060234906A1, “Structure of a complex of retinoblastoma protein bound to e2f, and uses thereof” (priority 2002, published 2006).

Target: T1, RbAB (Homo sapiens, UniProt P06400)
T1 construct: residues 372 to 589 of the A domain and 636 to 787 of the B domain; GST (with Prescission protease site) (N, cleaved yes); engineered thrombin site (LVPRGS) at the A-domain end of the A-B linker (C, cleaved yes); engineered thrombin site (LVPRGS) at the B-domain end of the A-B linker (N, cleaved yes); made in house; host or cells: E. coli
T1 sequence (P06400 whole entry, looked up): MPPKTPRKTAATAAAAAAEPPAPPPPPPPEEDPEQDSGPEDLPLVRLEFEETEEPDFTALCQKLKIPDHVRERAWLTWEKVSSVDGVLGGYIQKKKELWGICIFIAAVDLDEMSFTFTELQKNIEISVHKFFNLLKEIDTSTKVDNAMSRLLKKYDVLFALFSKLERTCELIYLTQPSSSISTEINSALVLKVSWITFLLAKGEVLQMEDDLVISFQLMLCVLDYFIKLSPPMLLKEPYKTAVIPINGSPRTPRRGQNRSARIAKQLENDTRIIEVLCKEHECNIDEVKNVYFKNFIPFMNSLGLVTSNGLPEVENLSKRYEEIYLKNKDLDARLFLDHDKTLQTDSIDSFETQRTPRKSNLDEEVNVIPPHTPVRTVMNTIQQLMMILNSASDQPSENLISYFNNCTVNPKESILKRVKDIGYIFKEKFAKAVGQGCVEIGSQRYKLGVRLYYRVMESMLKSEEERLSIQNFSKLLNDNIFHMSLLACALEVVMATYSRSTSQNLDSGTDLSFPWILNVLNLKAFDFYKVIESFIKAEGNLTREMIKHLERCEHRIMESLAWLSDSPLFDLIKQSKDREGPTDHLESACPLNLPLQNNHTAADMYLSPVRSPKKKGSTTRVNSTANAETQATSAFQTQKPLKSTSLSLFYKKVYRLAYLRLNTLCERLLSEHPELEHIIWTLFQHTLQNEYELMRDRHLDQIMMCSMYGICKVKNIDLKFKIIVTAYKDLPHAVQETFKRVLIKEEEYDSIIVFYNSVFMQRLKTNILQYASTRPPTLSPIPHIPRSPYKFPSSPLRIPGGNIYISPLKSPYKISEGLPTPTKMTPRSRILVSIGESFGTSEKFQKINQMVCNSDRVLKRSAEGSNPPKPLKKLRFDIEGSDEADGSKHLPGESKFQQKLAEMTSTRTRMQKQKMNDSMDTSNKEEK
Assay: RbAB
Text: Table printed on a drawing sheet, FIG. 2B
The patent's description of the figure: FIG. 2.
First copying reader's note: Binding constants of E2F fragments to the Rb constructs RbAB and RbABC; the error is printed in the same cell as the value.
Where the first naming reader finds the target: head: RbAB

Kd: < 10 nM
B1: E2F(243-437): Recombinant human E2F1(243-437) expressed in E. coli (protein, UniProt Q01094 243-437, looked up, fragment)
chain: LAYVTCQDLRSIADPAEQMVMVIKAPPETQLQAVDSSENFQISLKSKQGPIDVFLCPEETVGGISPGKTPSQEVTSEEENRATDSATIVSPPPSSPPSSLTTDPSQSLLSLEQEPLLSRMGSLRAPVDEDRLSPLVAADSLLEHVREDFSGLLPEEFISLSPPHEALDYHFGLEEGEGIRDLFDCDFGDLTPLDF
